According to patent publication US20230176057A1 (CHAN ZUCKERBERG BIOHUB, published 2023):

Target: SARS-CoV-2 nucleocapsid protein (N protein) (SARS-CoV-2, UniProt P0DTC9 1-419)

B1: N-binding clone H2 Fab (Fab, V domains shown)
VH: EVQLVESGGGLVQPGGSLRLSCAASGFNVYSSSIHWVRQAPGKGLEWVASISSYYSYTSYADSVKGRFTISADTSKNTAYLQMNSLRAEDTAVYYCARSYNFSWSGYYGFDYWGQGTLVTVSS
VL: DIQMTQSPSSLSASVGDRVTITCRASQSVSSAVAWYQQKPGKAPKLLIYSASSLYSGVPSRFSGSRSGTDFTLTISSLQPEDFATYYCQQFIQFPITFGQGTKVEIKR
- Kd: 20 nM
